Measured values published in US20230295308A1, “ANTAGONISTIC BIPARATOPIC ANTIBODIES THAT SPECIFICALLY BIND FIBROBLAST GROWTH FACTOR RECEPTOR 2 AND METHODS OF USING SAME” (The Broad Institute, Inc., priority 2020, published 2023).
“Also recorded” adds a separate entry of the source.

Tests used:
[1] = biological target: FGFR2b alpha IIIb antigen (UniProt P21802); experiment: SPR (Biacore), antibody on chip, FGFR2b alpha IIIb antigen
[2] = biological target: FGFR2 on SNU-16 gastric cancer cell line with FGFR2 amplification (UniProt P21802); experiment: FACS on SNU-16 cells, % cells with FITC+ [cont.]
FGFR2IIIb = biological target: T1, FGFR2IIIb; experiment: row 'Kd (nM) (patent)', value quoted from the source patent; method: solution equilibrium titration (SET)/ELISA+ECL-FGFR2IIIb
T1 construct: also called purified FGFR2IIIb
T1 chain: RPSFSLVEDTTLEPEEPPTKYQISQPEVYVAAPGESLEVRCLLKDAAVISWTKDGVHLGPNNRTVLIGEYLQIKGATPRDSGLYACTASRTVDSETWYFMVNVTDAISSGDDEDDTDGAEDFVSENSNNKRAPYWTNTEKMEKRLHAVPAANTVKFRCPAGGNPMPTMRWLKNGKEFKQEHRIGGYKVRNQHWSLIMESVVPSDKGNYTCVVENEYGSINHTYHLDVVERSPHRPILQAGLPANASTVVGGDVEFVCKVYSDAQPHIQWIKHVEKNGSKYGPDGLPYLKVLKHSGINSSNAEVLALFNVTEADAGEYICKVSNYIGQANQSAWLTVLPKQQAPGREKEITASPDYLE

FGFR2b alpha IIIb = FGFR2b alpha IIIb (Homo sapiens, UniProt P21802); experiment: Surface Plasmon Resonance (SPR) binding; details: FGFR2b alpha IIIb antigen
Excerpt: FIGS. 17A-17C provide a schematic and tabular data related to assessments made to compare the avidity of biparatopic antibodies to that of their parental (bivalent monospecific) antibodies.
Surface Plasmon Resonance (SPR) as known in the art was used to determine the binding affinities of biparatopic antibodies. The SPR-based binding method involves immobilization of a ligand (antibody) on the surface of a sensor chip. The binding partner of interest or an analyte (FGFR2 ECD) flow through the flow channel. Different concentrations of an analyte flow over the ligand, and the interactions of ligand-analyte can be characterized. The SPR signal originates from changes in the refractive index of the […] at the surface of the sensor chip. The increase in mass associated with a binding event causes a proportional increase in the refractive index, which is observed as a change in response-resonance signal. In brief, for the experiments using the antibodies described herein, the SPR assay was carried out by immobilizing antibodies (used as […]) at a concentration ranging from 1-1000 nM and flow-through FGFR2b alpha IIIb antigen (used as […]). The antibody kinetic data for the interaction with FGFR2b alpha IIb antigen were fitted to the 2-state and 1-1 binding models using Biocore software. The mean and standard deviation KD values are derived from at least three independent runs.
Using SPR, the kinetics of 6 monospecific and 13 biparatopic antibodies for binding to a single antigen, FGFR2b alpha IIb, was measured so as to compare avidity of the biparatopic antibodies to their parental antibodies. Without wishing to be bound by theory, it was expected that the biparatopic antibodies would bind to the FGFR2 antigen more tightly than their parental antibodies and that the tighter binding biparatopic antibodies among the antibodies that were assessed would be more efficient in blocking FGFR2 dimerization (FIG. 17A), thereby leading to inhibition or blocking of constitutive FGFR2 signaling and/or oncogenic transformation. […]

[3] = biological target: FGFR2 on SNU-16 gastric cancer cell line with FGFR2 amplification (UniProt P21802); experiment: row 'Kd (nM) (FACS)'; FACS on SNU-16 cells
[4] = tested on: BaF3 cells overexpressing FGFR2-PHGDH; experiment: combination of BGJ398 and anti-FGFR2 bivalent antibody, isobolograms and Loewe scores (FIGS. 14, 15); format: cell-based; details: absence of FGF10, treated for 5 days
Excerpt: FIGS. 14B-14D provide isobolograms showing synergy between FGFR inhibitor and the anti-[…] bivalent antibody on the different days and supporting the results shown in FIG. 14A. FIG. 14B corresponds to 3 days after treatment with the BGJ398 inhibitor; FIG. 14C corresponds to 4 days after treatment with the BGJ398 inhibitor; and FIG. 14D corresponds to 5 days after treatment with the BGJ398 inhibitor. FIG. 14E provide Loewe scores showing synergy between the FGFR inhibitor and the anti-FGF2 bivalent antibody on the different days and supporting the results shown in FIG. 14A.
FIG. 15A presents charts showing synergy between the FGFR2 small molecule inhibitor BGJ398 and an anti-FGFR2 bivalent antibody (Antibody D) in the presence of FGF ligand (+FGF) in a cell-based assay using BaF3 cells overexpressing an FGFR2 fusion molecule (FGFR2-PHGDH) after 3, 4 and 5 days of treatment with the inhibitor and the antibody. […] FIGS. 15B-15D provide isobolograms showing synergy between the FGFR inhibitor and the anti-FGF2 bivalent antibody on the different days and supporting the results shown in FIG. 15A. FIG. 15B corresponds to 3 days after treatment with the BGJ398 inhibitor; FIG. 15C corresponds to 4 days after treatment with the BGJ398 inhibitor; and FIG. 15D corresponds to 5 days after treatment with the BGJ398 inhibitor. […]

[5] = biological target: FGFR2b alpha IIIb antigen (UniProt P21802); experiment: SPR (Biacore), antibody immobilized, FGFR2b alpha IIIb in flow
[6] = tested on: FGFR2-PHDGH fusion expressing BaF3 cells; experiment: growth of BaF3 cells expressing FGFR2-PHGDH fusion, absence of FGF ligands (FIG. 9); format: cell-based; details: absence of FGF ligands
Method: Antibodies A-F were tested to determine whether they could inhibit the ligand-induced growth of BaF3 cells expressing FGFR2IIIb. Antibodies C, D, and E, which bind FGFR2 Ig-2 and Ig-3, were effective in blocking ligand-induced growth of BaF3 cells expressing wild-type FGFR2IIIb (FIG. 8). The effects of antibodies A-F were then tested on BaF3 cells expressing FGFR2-PHDGH fusions. […] Antibody F inhibited the FGFR2-PHDGH activating fusion in BaF3 cells (FIG. 9).

[7] = biological target: FGFR2 on SNU-16 gastric cancer cell line with FGFR2 amplification (UniProt P21802); experiment: FACS on SNU-16 cells, % No. of cells with FITC+ [cont.]
[8] = biological target: FGFR2 on SNU-16 gastric cancer cell line with FGFR2 amplification (UniProt P21802); experiment: FACS on SNU-16 cells, % cells with FITC+ against log antibody concentration; Kd printed in the legend box [cont.]
[9] = tested on: FGFR2-PHDGH fusion expressing BaF3 cells; experiment: ligand stimulated (FGF10) growth of FGFR2-PHGDH fusion expressing BaF3 cells (FIG. 10); format: cell-based; details: FGF10 present
Method: FIG. 10 is a graph showing that antibodies C, D, E and F have activity against ligand stimulated growth of FGFR2-PHDGH fusion expressing BaF3 cells.
The growth of BaF3 cells expressing an FGFR2-PHDGH fusion was assayed in the presence of FGF ligand, FGF10. Antibodies C, D, E and F inhibited ligand stimulated growth of FGFR2-PHDGH fusion expressing BaF3 cells (FIG. 10). Based on the results reported herein above, antagonistic biparatopic antibodies are made using the FGFR2 antibody combinations shown in FIG. 11A. These combinations result in increased growth inhibition effects in oncogenic or cancer cells (e.g., transformed BaF3 cells) that overexpressed […]. Thus, antibodies that bind to epitopes have increased inhibitory and killing effects against cancer cells. Designs for antagonistic biparatopic antibodies are shown at FIGS. 11B and 11C. Advantageously, including complementary mutations in VH-VL and CH1-CL on one-half of the biparatopic antibody results in preferential heterodimeric pairing between two different chains rather than chains from the other half of the same antibody. Alternatively, a linker method is used to create scFab, scFv, or DuoBodies. In this method two antibody chains are each generated in different cells and mixed in vitro. Such methods are known in the art and described, for example, by K. Ding et al, March 2017, Appl. Microbiol. […]

B1: 12433 (antibody, V domains shown)
VH: QVQLVQSGAEVKKPGESLKISCKGSGYSFTNYYIHWVRQMPGKGLEWMGAIYPDNSDTTYSPSFQGQVTISADKSISTAYLQWSSLKASDTAMYYCARGADIWGQGTLVTVSS
VL: DIQMTQSPSSLSASVGDRVTITCRASQDIDPYLSNWYQQKPGKAPKLLIYDASNLQSGVPSRFSGSGSGTDFTLTISSLQPEDFATYYCQQTTSHPYTFGQGTKVEIK
notes: the duobody scheme implies IgG1 with K409R or F405L; also called Antibody F; N12433
B1 was tested, and the Kd [1] was 7.5 nM, the EC50 (read off the curve) [2] was 1 mg/L and the Kd (FGFR2IIIb) was 5.6 nM. The Kd (FGFR2b alpha IIIb) was 7.5 nM, the Kd [3] was 8.81 nM and the “synergy with BGJ398 in inhibiting FGFR2-PHGDH driven BaF3 cell growth” value [4] was “synergizes”. The Binding Stoichiometry [5] was 2.1, the “inhibitory activity against the FGFR2-PHGDH activating fusion in BaF3 cells” value [6] was “inhibitory activity; also recorded: inhibited” and the EC50 (read off the curve) [7] was 1 mg/L. For the same molecule, the Kd [8] was 8.81 nM and the “inhibition of ligand stimulated growth of FGFR2-PHGDH fusion expressing BaF3 cells” value [9] was “have activity; also recorded: inhibited”.
